Reference: US20090041783A1 (MOCHIDA PHARMACEUTICAL, published 2009)

Columns and labels:
[1] = target: T1, human GPVI extracellular region-human Fc fusion protein (hGPVI-hFc) (human); assay: ELISA of hybridoma culture supernatant on coated hGPVI-hFc (selection criterion)
T1 construct: Expressed in COS-1, purified on Protein A; also called GPVI-HHH-hFc; hGPVIHHH-hFc
Experimental: Next, culture supernatant was added to each well and incubated at 37° C. for one hour. After incubation, the well was washed three times with the saline containing 0.05% Tween20. Peroxidase-labeled anti-mouse immunoglobulin antibody (DAKO, P260) was 1000-fold diluted with D-PBS containing 10% rabbit serum and added to each well at 50 μL. After incubation at 37° C. for one hour, washing in a similar manner was performed and TMB solution (BioFix) was added to each well. After ten minutes at room temperature, the reaction was terminated with 0.5 M sulfuric acid solution. Subsequently, absorbance at 450 nm was measured with the plate spectrophotometer (Multiscan JX, Dainippon Pharmaceutical). As a result, the cell whose culture supernatant reacted to hGPVI-hFc was selected and a cloning with limiting dilution method (“The Introduction to Monoclonal Antibody Experimental Procedure” written by Tamie Andoh and Takeshi Chiba (Kodansha, p 83)) was performed. Eight days later, screening was done in a similar manner and the antibody which reacts to hGPVI-hFc was selected.
After one week, hybridoma, which produces a desired antibody was screened using the binding property to hGPVI-hFc and hGPVI-mL9-hFc prepared in EXAMPLE 7 as an index. That is, the purified hGPVI-hFc or hGPVI-mL9-hFc, which was prepared in EXAMPLE 1, was diluted with D-PBS (pH7.4) to 1 μg/mL. And 50 μL/well of the solution was added to make hGPVI-hFc or hGPVI-mL9-hFc-coated plate using the same method as that of EXAMPLE 2. Next, a culture supernatant was added to each well, and after incubation at room temperature for one hour, by the same method as that of EXAMPLE 2, using peroxidase-labeled anti-mouse immunoglobulin antibody (DAKO, P260) a reaction was performed to measure an absorbance. As a result, the cell producing an antibody that binds to the purified hGPVI-hFc (absorbance: equal to or more than one), but not hGPVI-mL9-hFc (abdorbance: equal to or less than 0.5) was selected and cloned by the method described in EXAMPLE 2. Eight through ten days later, a screening was done as with the similar way to obtain a hybridoma producing an L9-specific mouse anti-human GPVI antibody. As with EXAMPLE 2B (3), the obtained hybridoma was cultured and a monoclonal antibody was purified. The sub-type of each antibody was determined using IsoStrip Mouse Monoclonal antibody Isotyping Kit (Roche).

[2] = target: T1, human GPVI extracellular region-human …; assay: ELISA on immobilised hGPVI-hFc; + A450 0.5-1.0, ++ 1.0-2.0, +++ more than 2.0
Experimental: The hGPVI-hFc prepared by EXAMPLE 1B was diluted with D-PBS to 2 μg/mL and added to immunoplate (Maxisorp NUNC) at 50 μL/well. After incubation at 37° C. for one hour, the well was washed five times with ion-exchanged water, and D-PBS (pH7.4) containing 2% StabilGuard (Surmodics) was added to each well in 100 μL for blocking. Next, culture supernatant was added to each well and incubated at 37° C. for one hour. After incubation, the well was washed three times with the saline containing 0.05% Tween20. Peroxidase-labeled anti-mouse immunoglobulin antibody (DAKO, P260) was 1000-fold diluted with D-PBS containing 10% rabbit serum and added to each well at 50 μL. After incubation at 37° C. for one hour, washing in a similar manner was performed and TMB solution (BioFix) was added to each well. After ten minutes at room temperature, the reaction was terminated with 0.5 M sulfuric acid solution. Subsequently, absorbance at 450 nm was measured with the plate spectrophotometer (Multiscan JX, Dainippon Pharmaceutical). As a result, the cell whose culture supernatant reacted to hGPVI-hFc was selected and a cloning with limiting dilution method (“The Introduction to Monoclonal Antibody Experimental Procedure” written by Tamie Andoh and Takeshi Chiba (Kodansha, p 83)) was performed. Eight days later, screening was done in a similar manner and the antibody which reacts to hGPVI-hFc was selected.
(§1) To analyze a property for each antibody obtained in EXAMPLE 13, binding to human GPVI-hFc, competition with F1232-37-2 described in EXAMPLE 4 and specificity for L9 loop were investigated. That is, as for the binding to human GPVI, according to the method of EXAMPLE 2, a binding activity to immobilized antigen was measured. For the binding activity, the range of absorbance from 0.5 to 1.0 is represented by “+”, from 1.0 to 2.0 by “++”, the range more than 2.0 by “+++”. The competitive test with F1232-37-2 was performed as follows. That is, according to the method by Nakane et al. (J. Histochem. Cytochem., 22, 1084, 1974), peroxidase (TOYOBO)-labeled F1232-37-2 antibody was prepared and an antibody concentration was calculated from the amount of the antibody used.

[3] = target: T1, human GPVI extracellular region-human …; assay: competition ELISA on hGPVI-hFc plate; competitor: peroxidase-labelled F1232-37-2; +++ more than 50%, ++ 30-50%, + 10-30% inhibition
Experimental: as §1
Next, by using the peroxidase-labeled antibody, the competitive test for a variety of purified antibody was performed. That is, 25 μL of the above labeled antibody and 25 μL of each purified antibody were added to well of hGP-hFc-immobilized plate. After incubation at 37° C. for one hour, the well was washed five times with the saline containing 0.05% Tween20, and the reaction mixture was developed with TMB solution (BioFix). After incubation at room temperature for 10 minutes, the reaction was terminated with 0.5 M sulfuric acid solution and an absorbance at 450 nm was measured with the plate spectrophotometer (Multi-Scan JX, Dainippon Pharmaceutical).

[4] = target: T1, human GPVI extracellular region-human …; assay: ELISA, collagen on plate, hGPVI-hFc plus antibody; +++ more than 50%, ++ 30-50%, + 10-30% inhibition

T1 sequence (chain, as listed by the source limits assumed): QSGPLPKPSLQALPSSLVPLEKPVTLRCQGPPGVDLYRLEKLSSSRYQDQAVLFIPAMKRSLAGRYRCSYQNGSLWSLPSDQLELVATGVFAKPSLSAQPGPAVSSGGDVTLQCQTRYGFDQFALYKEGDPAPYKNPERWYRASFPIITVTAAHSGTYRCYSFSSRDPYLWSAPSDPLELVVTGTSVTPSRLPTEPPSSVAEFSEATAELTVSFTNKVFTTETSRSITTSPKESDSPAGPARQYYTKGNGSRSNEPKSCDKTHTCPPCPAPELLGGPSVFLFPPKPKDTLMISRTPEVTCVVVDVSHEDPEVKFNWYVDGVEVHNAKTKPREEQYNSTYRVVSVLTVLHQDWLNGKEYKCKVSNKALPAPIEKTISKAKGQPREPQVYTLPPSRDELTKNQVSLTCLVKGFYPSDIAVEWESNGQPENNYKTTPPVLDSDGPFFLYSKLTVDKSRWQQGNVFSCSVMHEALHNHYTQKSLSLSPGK

Row | Binder | absorbance [1] | absorbance [2] | percent inhibition [3] | percent inhibition [4]
1 | F1257-3-1 (antibody, V domains shown) VH: QVTLKESGPGMLQPSKTLSLTCSFSGFSLSTSGMVVSWIRQPSGKSLEWLAAIDWDGDKYYNPSLKSRLTVSKDTSNTQVFLKISSVDIADTATYYCARTPYYGYKEAYYFDYWGQGVKVTVSS VL: DIQMTQSPASLSASLEEIVTITCKASRAIDDYLSWYQQKPGKSPQLLIYDATSLADGVPSRFSGSRSGTQYSLKISRPQVDDSGIYYCLQSYSTPWTFGGGTKLDLKR | – | > 2 od | – | –
2 | F1245-7-1 (antibody, V domains shown) VH: QVQLQQPGAELVKPGASVKLSCKASGYTFTSYWMHWVKQRPGQGLEWIGMIHPNSGSTNYNEKFKSKATLTVDKSSSTAYMQLSSLTSEDSAVYYCASPVTAVVEYYFDYWGQGTTLTVSS VL: SIVMTQTPKFLLVSAGDRVTITCKASQSVSNDVAWYQQKPGQSPKLLIYYASNRYTGVPDRFTGSGYGTDFTFTISTVQAEDLAVYFCQQDYSSLTFGSGTKLEIKR | ≥ 1 absorbance | 1 to 2 od | 10 to 30% | –
3 | F1249-18-2 (antibody, V domains shown) VH: QVQLQQPGAELVKPGASVKLSCKASGYTFTSYWMHWLKQRPGQGLEWIGMIHPNSDITNYNEKFKNKATLTVDKSSSTAYMQLSSLTSEDSAVYYCARSGDYYAMDYWGQGTSVTVSS VL: SIVMTQTPKFLLVSAGDRVTITCKASQSVSNDVAWYQQKPGQSPKLLIYYASNRYTGVPDRFTGSGYGTDFTFTISTVQAEDLAVYFCQQDYSSPPTFGGGTKLEIKR | ≥ 1 absorbance | > 2 od | 30 to 50% | > 50%
4 | F1249-5-1 (antibody, V domains shown) VH: QVQLQQPGAELVKPGASVKLSCKASGYTFTSYWMHWLKQRPGQGLEWIGMIHPNSDITNYNEKFKNKATLTVAKSSSTAYMQLSSLTSEDSAVYYCARLGDYYAMDYWGQGTSVTVSS VL: SIVMTQTPKFLLVSAGDRVTITCKASQSVSNDVTWYQQKPGQSPKLLIYYASNRYTGVPDRFTGSGYGTDFTFTISTVQAEDLAVYFCQQDYSSPPTFGGGTKLEIKR | ≥ 1 absorbance | 1 to 2 od | 30 to 50% | 10 to 30%
5 | F1249-3-2 (antibody, V domains shown) VH: EVQLVESGGGLVKPGGSLKLSCAASGFTFSSYGMSWVRQTPDKRLEWVATISSGGSYTYYSDSVKGRFTISRDNAKNNLYLQLSSLKSQDTAIYYCARDSGYFDYWGQGTTLTVSS VL: NIVLTQSPASLAVSLGQRATISCRASESVDSYGNSFMHWYQQKPGQPPKLLIYLASNLESGVPARFSGSGSRTDFTLTIDPVEADDAATYYCQQNNEDPRTFGGGTKLEIKR | ≥ 1 absorbance | 0.5 to 1 od | 30 to 50% | 10 to 30%
6 | F1249-22-1 (antibody, V domains shown) VH: QVQLQQPGAELVKPGASVKLSCKASGYTFTSYWMQWVKERPGQGLEWIGEIDPSDSYTNYNQKFKGKATLTVDTSSSTACMQLSSLTSEDSAVYYCARGAITTATLDYWGQGTTLTVSS VL: not shown | ≥ 1 absorbance | 0.5 to 1 od | 10 to 30% | 30 to 50%

Second part, the binder after the results:

Row | absorbance [1] | absorbance [2] | percent inhibition [3] | percent inhibition [4] | Binder
7 | ≥ 1 absorbance | > 2 od | 30 to 50% | – | F1249-20-1 (antibody, V domains shown) VH: QVQLQQSGAELVRPGVSVKISCKGSGYTFTDYAMHWVKQSHAKSLEWIGVISTYYGDTSYNQKFKGKATMTVDKSSSTAYMELARLTSEDSAIYYCARAEDYDPWFAYWGQGTLVTVSA VL: DIVLTQSPASLAVSLGQRATISCRASESVDSYGNSFMYWYQQKPGQPPKLLIYRASNLESGIPARFSGSGSRTDFTLTINPVEADDVATYYCQQSDEDPLTFGAGTKLELKR
8 | ≥ 1 absorbance | 0.5 to 1 od | 10 to 30% | 10 to 30% | F1251-1-1 (antibody, V domains shown) VH: QVNLLQSGAALVKPGASVKLSCKASGYTFTDYYIHWVKQSHGKSLEWIGYINPNSGYTNYNEKFKSKATLTVDKSTNTAYMELSRLTSEDSATYYCTRCNSGYGDWFAYWGQGTLLTVSS VL: DIQMTQSPPVLSASVGDRVTLSCKASQNINKNLDWYQQKHGEAPKLLIYYTNNLQTDIPSRFSGSGSGTDYTLTISSLQPEDVATFYCYQYNSGPGTFGAGTKLELKR
9 | ≥ 1 absorbance | > 2 od | 30 to 50% | 10 to 30% | F1245-4-1 (antibody, V domains shown) VH: QVQLQQPGAELVKPGASVKLSCKASGCTFTSYWMHWVKQRPGQGLEWIGMIHPNSDNTNYNEKFKSKATLTVDKSSSTAYMHLSSLTSEDSAVYYCATHYYDYVDYWGQGTTLTVSS VL: NIVMTQTPKFLLVSAGDRVTITCKASQSVSNDVAWYQQKPGQSPKLLIYYASNRYTGVPDRFTGSGYGTDFTFTISTVQAEDLAVYFCQQDYSSPWTFGGGTKLEIKR
10 | ≥ 1 absorbance | 1 to 2 od | 10 to 30% | – | F1246-1-1 (antibody, V domains shown) VH: EVQLVESGGDLVKPGGSLKLSCAASGFTFSSYGMSWVRQTPDKRLEWVATISNGGTYTYYPDSVKGRFTISRDNAKNTLYLQMSSLKSDDTAMYYCGRLRDYYAMDYWGQGTSVTVSS VL: DIVLTQSPASLAVSLGQRATISCRASESVDSYGNSFMHWYQQKPGQPPKLLIYRASNLESGIPARFSGSGSRTDFTLTINPVEADDVATYYCQQSNEDPWTFGGGTKLEIKR
11 | ≥ 1 absorbance | > 2 od | > 50% | – | F1249-30-1 (antibody, V domains shown) VH: QVQLQQSGAELVRPGVSVKISCKGSGYTFTDYAMHWVKQSHAKSLEWIGVISTYYGDTSYNQKFKGKAAMTVDKSSSTAYMELARLTSDDSAIYYCARAEDYDPWFAYWGQGTLVTVSA VL: DIVLTQSPASLAVSLGQRATISCRASESVDSYGNSFMHWYQQKPGQPPKLLIYRASNLESGIPARFSGSGSRTDFTLTINPVEADDVATYYCQQSDEDPLTFGAGTKLELKR
